For one molecule, Kd results are on record in PMC3220277 (Biochemistry, 2011).

Among the targets are C3R/C86S S100A4 (human, UniProt P26447 1-101, C3R | C86S); wild-type human S100A4 (human, UniProt P26447 1-101); C81A S100A4 (human, UniProt P26447 1-101, C81A); C81S S100A4 (human, UniProt P26447 1-101, C81S).
What all share (assay): fluorescence polarisation
On the technique in general: Polarisation of emitted light reports the rotation of a fluorescent probe.

Chain of C81S S100A4 (P26447 whole entry C81S, one chain of several): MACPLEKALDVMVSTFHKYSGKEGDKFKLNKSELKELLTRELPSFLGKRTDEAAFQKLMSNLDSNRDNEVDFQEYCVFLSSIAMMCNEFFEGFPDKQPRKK
Chain of wild-type human S100A4 (P26447 whole entry, one chain of several): as the sequence (P26447 whole entry C81S, one chain of several) above, with S81C counted along it
Chain of C3R/C86S S100A4 (P26447 whole entry C3R/C86S, one chain of several): as the sequence (P26447 whole entry C81S, one chain of several) above, with C3R, S81C, C86S counted along it
Chain of C81A S100A4 (P26447 whole entry C81A, one chain of several): as the sequence (P26447 whole entry C81S, one chain of several) above, with S81A counted along it

B1: FITC-Ahx-DAMNREVSSLKNKLRR-OH peptide (FITC-MIIA^1908−1923) (peptide)
peptide: DAMNREVSSLKNKLRR
HELM: PEPTIDE1{[O=C1OC2(c3ccc(O)cc3Oc3cc(O)ccc32)c2ccc(NC(=S)[*:2])cc21].[O=C(CCCCCN[*:1])[*:2]].D.A.M.N.R.E.V.S.S.L.K.N.K.L.R.R}$$$$V2.0
SMILES: CSCC[C@H](NC(=O)[C@H](C)NC(=O)[C@H](CC(=O)O)NC(=O)CCCCCNC(=S)Nc1ccc2c(c1)C(=O)OC21c2ccc(O)cc2Oc2cc(O)ccc21)C(=O)N[C@@H](CC(N)=O)C(=O)N[C@@H](CCCNC(=N)N)C(=O)N[C@@H](CCC(=O)O)C(=O)N[C@H](C(=O)N[C@@H](CO)C(=O)N[C@@H](CO)C(=O)N[C@@H](CC(C)C)C(=O)N[C@@H](CCCCN)C(=O)N[C@@H](CC(N)=O)C(=O)N[C@@H](CCCCN)C(=O)N[C@@H](CC(C)C)C(=O)N[C@@H](CCCNC(=N)N)C(=O)N[C@@H](CCCNC(=N)N)C(=O)O)C(C)C
In general, Kd refers to the free concentration of one partner at which half of the binding sites on the other are occupied at equilibrium, for simple one-to-one binding. The low end stands for tighter binding, the high end for weaker binding. Turning to B1, the Kd with C3R/C86S S100A4 was 1.4 ± 0.1 µM; with wild-type human S100A4, 2.3 ± 0.3 µM; with C81A S100A4, 46.6 ± 3.2 µM; with C81S S100A4, 128 ± 15.7 µM.
